This assay deals with Arabidopsis thaliana Fatty Acid Thioesterase A (FatA) (Arabidopsis thaliana) (UniProt Q42561). Put plainly: crystal structure.

The stoichiometry N is a count of units in the complex or per binding partner.

The substance “Arabidopsis thaliana Fatty Acid Thioesterase A (FatA) (from UniProt Q42561 75-362) (enzyme)” registered a stoichiometry N of 2.

The record behind these values is paper doi:10.1101/2024.12.23.629660.
